Patent US8410045B2, “Camptothecin-peptide conjugates and pharmaceutical compositions containing the same” (Drais Pharmaceuticals, Inc., priority 2006, dated 2013)
Where two headings read alike, the source gives them in different places. Where a SMILES comes first, the peptide text is derived from it. Where no end group is shown, it is not given here. Side-chain parts run from the residue outwards. [ ]: non-standard residue; d: D form. The star is where a group is joined. ξ: configuration not given here. X9 = CCc1c2c(nc3ccc(OC(=O)[C@H]4CC[C@H](CNC(=O)CCOCCOCCOCCOCCNC(=O)CCN5C(=O)CC(*)C5=O)CC4)cc13)-c1cc3c(c(=O)n1C2)COC(=O)[C@]3(O)CC; X6 = CCc1c2c(nc3ccc(OC(=O)[C@H]4CC[C@H](CNC(=O)C5CCC(CN6C(=O)CC(*)C6=O)CC5)CC4)cc13)-c1cc3c(c(=O)n1C2)COC(=O)[C@]3(O)CC; X7 = CCc1c2c(nc3ccc(OC(=O)CCCCCCCCCCN4C(=O)CC(*)C4=O)cc13)-c1cc3c(c(=O)n1C2)COC(=O)[C@]3(O)CC; X5 = CCc1c2c(nc3ccc(OC(=O)CCN4C(=O)CC(*)C4=O)cc13)-c1cc3c(c(=O)n1C2)COC(=O)[C@]3(O)CC; X8 = CC[C@@]1(O)C(=O)OCc2c1cc1n(c2=O)Cc2cc3cc(OC(=O)CCN4C(=O)CC(*)C4=O)ccc3nc2-1; SN38 = active drug (irinotecan metabolite) conjugated via the linker; MIC = not defined here; ξC = NC(CS)C(=O)O

Legend:
[1] = Stability of conjugates in citrated plasma at 37° C. (half life time, HPLC fluorescence); type: in vitro ADME, human; settings: for half-life: human, plasma
Procedure: (§1) The stability of the conjugates was tested in citrated plasma (10% (v/v) sodium citrate buffer, 0.106M) from different species (see Table 1 below). The conjugates at 2.55 μM were incubated at 37° C. in plasma. Samples were analysed using the HPLC fluorescence method described below (see chromatographic equipment and conditions) following TFA/acetonitrile extraction and the amount of free camptothecin, analogs or derivatives thereof (e.g. SN38) released by the conjugates was measured.
(§2) Chromatographic equipment and conditions: 150 μL of each sample were placed in 1.5 mL micro-centrifuge tubes. 450 μL of 5% (v/v) TFA in H2O was added to each tube and the mixture was vortexed for 5 seconds. Samples were then centrifuged at 16000 g, 3 minutes at +4° C. 100 μL of supernatant were placed in 1.5 mL micro-centrifuge tubes. Methanol (100 μL) was then immediately added and vortexed for 5 seconds. Samples were then centrifuged at 16000 g, 3 minutes at room temperature. 150 μL of supernatant were recovered for HPLC analysis. Conjugates, metabolites and camptothecin derivative (i.e. SN38) were separated by high-performance liquid chromatography (HPLC; Agilent 1100 series equipped with a fluorescence detector) using a 4.6×100 mm ([…] particle size) Luna C18(2) column (Phenomenex ref. 00D-4251-E0, Le Pecq, France). The aqueous component of the mobile phase (A) was 0.1% (v/v) TFA in water. The organic modifier (B) was acetonitrile containing 0.1% (v/v) TFA. For the conjugate and its metabolites an elution gradient increasing linearly the proportion of B from 15 to 37% in 2 min, from 37 to 47% in 6 min, followed by 2 min at 90% was applied with a constant flow rate of 1.2 mL/min. The proportion of B was then returned to the initial condition for 3.0 min.
(§3) The half life time of conjugate corresponds to the time necessary to have 50% by mole of free camptothecin, analogs or derivatives thereof released by the conjugates of the invention. In human plasma, the half life time of conjugate DPV1047-linker #1-SN38 (less than 5 mins) was shorter than that of conjugate DPV1047-linker #2-SN38 (6-7 mins), which, in turn, was shorter than that of conjugate DPV1047-linker #3-SN38 (12 mins).
(§4) As in Example II, the stability of these conjugates was tested in either human or dog plasma. Following incubation at 37° C., samples were analyzed after a TFA acetonitrile extraction by the HPLC fluorescence method described in Example II. The in vitro cytotoxicity (IC50) of these compounds was also evaluated.

[2] = as above; type: in vitro ADME; settings: dog, read-out: Dog Plasma Half life time
Procedure: as §1, §2, §3, §4

[3] = system: HCT 116 human colorectal carcinoma tumor
[4] = Table 10, SN38 conjugates, read-out: Human Plasma Half life time
[5] = DPV1047-linker-SN38, 2.55 μM, citrated plasma
[6] = DPV1047-linker-SN38, 2.55 μM, citrated plasma, read-out: Half life time, Human plasma
[7] = Table 14, 10-Hydroxycamptothecin conjugates, read-out: Human Plasma Half life time
[8] = Table 14, 10-Hydroxycamptothecin conjugates

Row | Molecule | half-life [1, 4] [min] | half-life ([2]; Table 10, SN38 conjugates) [min] | half-life [1, 6] [min] | other results
1 | CCc1c2c(nc3ccc(OC(=O)[C@H]4CC[C@H](CNC(=O)C5CCC(CN6C(=O)CC(SC[C@H](NC(=O)[C@@H]7CCCN7C(=O)[C@H](CC(=O)O)NC(=O)[C@H](CCCNC(=N)N)NC(=O)[C@H](CCCCN)NC(=O)[C@H](CCCCN)NC(=O)CNC(=O)[C@H](CC(C)C)NC(=O)[C@H](CCCCN)NC(=O)CNC(=O)[C@H](CCCCN)NC(=O)[C@H](CCCCN)NC(=O)[C@H](CCCCN)NC(=O)[C@H](CCCNC(=N)N)NC(=O)[C@H](CCCCN)NC(=O)CN)C(=O)O)C6=O)CC5)CC4)cc13)-c1cc3c(c(=O)n1C2)COC(=O)[C@]3(O)CC (stereo partly drawn) [DPV7-linker #5-SN38] (H-GKRKKKGKLGKKRDPC(X6)-OH; N-terminus and C-terminus assumed) | 162 | 112 |  | 
2 | CCc1c2c(nc3ccc(OC(=O)CCCCCCCCCCN4C(=O)CC(SC[C@H](N)C(=O)N[C@H](C(=O)N[C@@H](CCCCN)C(=O)N[C@@H](CCCNC(=N)N)C(=O)NCC(=O)N[C@@H](CC(C)C)C(=O)N[C@@H](CCCCN)C(=O)N[C@@H](CC(C)C)C(=O)N[C@@H](CCCNC(=N)N)C(=O)N[C@@H](Cc5c[nH]cn5)C(=O)N[C@H](C(=O)N[C@@H](CCCNC(=N)N)C(=O)N5CCC[C@H]5C(=O)N[C@@H](CCCNC(=N)N)C(=O)N[C@H](C(=O)N[C@H](C(=O)N[C@@H](CCCNC(=N)N)C(=O)N[C@@H](CCSC)C(=O)N[C@@H](CC(=O)O)C(=O)N[C@H](C(=O)O)C(C)C)[C@@H](C)O)C(C)C)C(C)C)C(C)C)C4=O)cc13)-c1cc3c(c(=O)n1C2)COC(=O)[C@]3(O)CC (stereo partly drawn) [DPV1047-linker #3-SN38] (H-C(X7)VKRGLKLRHVRPRVTRMDV-OH) |  |  | 12 | Half life time, Human plasma [1, 5]: 8 to 9 min
3 | PolyE(16)-MIC-SN38: non cell-penetrating PolyE(16) peptide coupled via MIC linker to SN38 (EEEEEEEEEEEEEEEEC([MIC-SN38]); not fully specified; reading uncertain; also: SN38 attached through MIC linker at Cys) [reference compound] |  |  |  | activity in the HCT 116 model ([3]; 40 μmol/kg, Q4D×3): not active; TGI (100-T/C %) ([3]; Table 5, Q4Dx3, DPV1047-BCH-SN38 30, PolyE(16)-MIC-SN38 40, irinotecan 48 μmol/kg): 30%
4 | CC[C@@]1(O)C(=O)OCc2c1cc1n(c2=O)Cc2cc3cc(OC(=O)CCCCCNC(=O)C4CCC(CN5C(=O)CC(SC[C@H](NC(=O)[C@H](CCC(N)=O)NC(=O)[C@@H]6CCCN6C(=O)[C@@H]6CCCN6C(=O)[C@H](CCCNC(=N)N)NC(=O)[C@H](CCCNC(=N)N)NC(=O)[C@H](CCCNC(=N)N)NC(=O)[C@H](CCC(N)=O)NC(=O)[C@H](CCCNC(=N)N)NC(=O)[C@H](CCCNC(=N)N)NC(=O)[C@H](CCCCN)NC(=O)[C@H](CCCCN)NC(=O)[C@H](CCCNC(=N)N)NC(=O)CN)C(=O)O)C5=O)CC4)ccc3nc2-1 (stereo partly drawn) [Tat-linker #4-10 Hydroxycamptothecin] |  |  |  | half-life [1, 7]: 7.3 min; half-life [2, 8]: 20 min
5 | CCc1c2c(nc3ccc(OC(=O)[C@H]4CC[C@H](CNC(=O)C5CCC(CN6C(=O)CC(SCC(N)C(=O)N[C@H](CCCCN)C(=O)N[C@H](CCCNC(=N)N)C(=O)NCC(=O)N[C@H](CC(C)C)C(=O)N[C@H](CCCCN)C(=O)N[C@H](CC(C)C)C(=O)N[C@H](CCCNC(=N)N)C(=O)N[C@H](Cc7c[nH]cn7)C(=O)O)C6=O)CC5)CC4)cc13)-c1cc3c(c(=O)n1C2)COC(=O)[C@]3(O)CC (stereo partly drawn) [DPV51(D)-linker #5-SN38] (H-[ξC](X6)[dK][dR]G[dL][dK][dL][dR][dH]-OH; N-terminus and C-terminus assumed) |  |  |  | half-life ([1]; Table 12, CPP-linker #5-SN38 conjugates incl. D conformation, read-out: Human Plasma Half life time): 267 min; half-life ([2]; Table 12, CPP-linker #5-SN38 conjugates incl. D conformation): 175 min
6 | CCc1c2c(nc3ccc(OC(=O)[C@H]4CC[C@H](CNC(=O)C5CCC(CN6C(=O)CC(SC[C@H](NC(=O)[C@H](CCC(N)=O)NC(=O)[C@@H]7CCCN7C(=O)[C@@H]7CCCN7C(=O)[C@H](CCCNC(=N)N)NC(=O)[C@H](CCCNC(=N)N)NC(=O)[C@H](CCCNC(=N)N)NC(=O)[C@H](CCC(N)=O)NC(=O)[C@H](CCCNC(=N)N)NC(=O)[C@H](CCCNC(=N)N)NC(=O)[C@H](CCCCN)NC(=O)[C@H](CCCCN)NC(=O)[C@H](CCCNC(=N)N)NC(=O)CN)C(=O)O)C6=O)CC5)CC4)cc13)-c1cc3c(c(=O)n1C2)COC(=O)[C@]3(O)CC (stereo partly drawn) [Tat-linker #5-SN38] | 335 | 122 |  | 
7 | CC[C@@]1(O)C(=O)OCc2c1cc1n(c2=O)Cc2cc3cc(OC(=O)CCN4C(=O)CC(SC[C@H](N)C(=O)N[C@H](C(=O)N[C@@H](CCCCN)C(=O)N[C@@H](CCCNC(=N)N)C(=O)NCC(=O)N[C@@H](CC(C)C)C(=O)N[C@@H](CCCCN)C(=O)N[C@@H](CC(C)C)C(=O)N[C@@H](CCCNC(=N)N)C(=O)N[C@@H](Cc5c[nH]cn5)C(=O)N[C@H](C(=O)N[C@@H](CCCNC(=N)N)C(=O)N5CCC[C@H]5C(=O)N[C@@H](CCCNC(=N)N)C(=O)N[C@H](C(=O)N[C@H](C(=O)N[C@@H](CCCNC(=N)N)C(=O)N[C@@H](CCSC)C(=O)N[C@@H](CC(=O)O)C(=O)N[C@H](C(=O)O)C(C)C)[C@@H](C)O)C(C)C)C(C)C)C(C)C)C4=O)ccc3nc2-1 (stereo partly drawn) [DPV1047-linker #1-10 Hydroxycamptothecin] (H-C(X8)VKRGLKLRHVRPRVTRMDV-OH) |  |  |  | half-life [1, 7]: < 3 min; half-life [2, 8]: 3 min
8 | CCc1c2c(nc3ccc(OC(=O)CCN4C(=O)CC(SC[C@H](N)C(=O)N[C@H](C(=O)N[C@@H](CCCCN)C(=O)N[C@@H](CCCNC(=N)N)C(=O)NCC(=O)N[C@@H](CC(C)C)C(=O)N[C@@H](CCCCN)C(=O)N[C@@H](CC(C)C)C(=O)N[C@@H](CCCNC(=N)N)C(=O)N[C@@H](Cc5c[nH]cn5)C(=O)N[C@H](C(=O)N[C@@H](CCCNC(=N)N)C(=O)N5CCC[C@H]5C(=O)N[C@@H](CCCNC(=N)N)C(=O)N[C@H](C(=O)N[C@H](C(=O)N[C@@H](CCCNC(=N)N)C(=O)N[C@@H](CCSC)C(=O)N[C@@H](CC(=O)O)C(=O)N[C@H](C(=O)O)C(C)C)[C@@H](C)O)C(C)C)C(C)C)C(C)C)C4=O)cc13)-c1cc3c(c(=O)n1C2)COC(=O)[C@]3(O)CC (stereo partly drawn) [DPV1047-linker #1-SN38] (H-C(X5)VKRGLKLRHVRPRVTRMDV-OH) | < 3 | 11.3 | < 5 | Half life time, Human plasma [1, 5]: <5 min
9 | CCc1c2c(nc3ccc(OC(=O)CCN4C(=O)CC(SC[C@H](N)C(=O)N[C@@H](CCCNC(=N)N)C(=O)N[C@@H](CCC(N)=O)C(=O)N[C@H](C(=O)N[C@@H](CCCCN)C(=O)N[C@H](C(=O)N[C@@H](Cc5c[nH]c6ccccc56)C(=O)N[C@@H](Cc5ccccc5)C(=O)N[C@@H](CCC(N)=O)C(=O)N[C@@H](CC(N)=O)C(=O)N[C@@H](CCCNC(=N)N)C(=O)N[C@@H](CCCNC(=N)N)C(=O)N[C@@H](CCSC)C(=O)N[C@@H](CCCCN)C(=O)N[C@@H](Cc5c[nH]c6ccccc56)C(=O)N[C@@H](CCCCN)C(=O)N[C@@H](CCCCN)C(=O)O)[C@@H](C)CC)[C@@H](C)CC)C4=O)cc13)-c1cc3c(c(=O)n1C2)COC(=O)[C@]3(O)CC (stereo partly drawn) [Penetratin-linker #1-SN38] | < 3 | 16.5 |  | 
10 | CCc1c2c(nc3ccc(OC(=O)[C@H]4CC[C@H](CNC(=O)CCOCCOCCOCCOCCNC(=O)CCN5C(=O)CC(SC[C@H](N)C(=O)N[C@H](C(=O)N[C@@H](CCCCN)C(=O)N[C@@H](CCCNC(=N)N)C(=O)NCC(=O)N[C@@H](CC(C)C)C(=O)N[C@@H](CCCCN)C(=O)N[C@@H](CC(C)C)C(=O)N[C@@H](CCCNC(=N)N)C(=O)N[C@@H](Cc6c[nH]cn6)C(=O)N[C@H](C(=O)N[C@@H](CCCNC(=N)N)C(=O)N6CCC[C@H]6C(=O)N[C@@H](CCCNC(=N)N)C(=O)N[C@H](C(=O)N[C@H](C(=O)N[C@@H](CCCNC(=N)N)C(=O)N[C@@H](CCSC)C(=O)N[C@@H](CC(=O)O)C(=O)N[C@H](C(=O)O)C(C)C)[C@@H](C)O)C(C)C)C(C)C)C(C)C)C5=O)CC4)cc13)-c1cc3c(c(=O)n1C2)COC(=O)[C@]3(O)CC (stereo partly drawn) [DPV1047-linker #6-SN38] (H-C(X9)VKRGLKLRHVRPRVTRMDV-OH; N-terminus and C-terminus assumed) |  |  | 30 | 
